Measured values reported in publication PMC3460868, “Crosstalk of Escherichia coli FadR with Global Regulators in Expression of Fatty Acid Transport Genes”.

Experiments:
Settings in all cases: protein: recombinant; tags: His6 (pET28); chain copies: 2; label: DIG-ddUTP 3' (terminal transferase); blunt
[1] = target: CRP (Escherichia coli, UniProt P0ACJ8 1-210); experiment: EMSA; cAMP (200 pmol in 20 ul); Roche binding buffer (composition not given), 15 min, room temperature; FadR: 0.1 pmol probe in 10 ul, 0-10 pmol protein, 7% native PAGE; CRP: 0.6 pmol probe in 20 ul (legend; Methods say 0.1 or 0.2 pmol), 5-20 pmol protein, 6.5% native PAGE
[2] = target: T1, FadR (Escherichia coli, UniProt P0A8V6 1-239); experiment: EMSA; essentially complete binding by 50 nM FadR; Roche binding buffer (composition not given), 15 min, room temperature; FadR: 0.1 pmol probe in 10 ul, 0-10 pmol protein, 7% native PAGE; CRP: 0.6 pmol probe in 20 ul (legend; Methods say 0.1 or 0.2 pmol), 5-20 pmol protein, 6.5% native PAGE
[3] = target: T1, FadR; experiment: EMSA; affinity comparable to the fadL sites; Roche binding buffer (composition not given), 15 min, room temperature; FadR: 0.1 pmol probe in 10 ul, 0-10 pmol protein, 7% native PAGE; CRP: 0.6 pmol probe in 20 ul (legend; Methods say 0.1 or 0.2 pmol), 5-20 pmol protein, 6.5% native PAGE

T1 sequence (P0A8V6 whole entry): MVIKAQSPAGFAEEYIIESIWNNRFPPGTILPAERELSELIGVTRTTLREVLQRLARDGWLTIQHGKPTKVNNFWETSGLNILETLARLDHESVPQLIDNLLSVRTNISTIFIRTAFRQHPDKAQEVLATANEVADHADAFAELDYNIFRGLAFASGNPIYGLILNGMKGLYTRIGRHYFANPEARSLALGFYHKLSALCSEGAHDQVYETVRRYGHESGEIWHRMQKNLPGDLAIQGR
CRP, sequence (P0ACJ8 whole entry): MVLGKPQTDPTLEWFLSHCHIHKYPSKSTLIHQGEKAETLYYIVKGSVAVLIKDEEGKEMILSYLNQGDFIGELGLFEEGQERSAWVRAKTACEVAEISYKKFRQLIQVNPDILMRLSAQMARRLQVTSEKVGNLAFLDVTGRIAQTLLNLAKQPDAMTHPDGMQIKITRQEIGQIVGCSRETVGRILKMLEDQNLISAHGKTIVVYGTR

Row | Binder | binding result [1] | also measured
1 | fadH CRP site 1 (probe 1) (dsDNA) DNA 1: GTAACCTGGATAAAACGCGACAAGCGTCGCATCCGGCGTTATCACCGG DNA 2: CCGGTGATAACGCCGGATGCGACGCTTGTCGCGTTTTATCCAGGTTAC | binds | 
2 | fadD CRP site (dsDNA) DNA 1: GTAAAGATAAAAATAAATAGTGACGCGCTTCGCAACCTTTTCGTTGGG DNA 2: CCCAACGAAAAGGTTGCGAAGCGCGTCACTATTTATTTTTATCTTTAC | binds | 
3 | fadL CRP site 2 (probe 2) (dsDNA) DNA 1: CCCTACACTTCGCGCTCCTGTTACAGCACGTAACATAGTTTGTATAAAAATAAATC DNA 2: GATTTATTTTTATACAAACTATGTTACGTGCTGTAACAGGAGCGCGAAGTGTAGGG | no binding | 
4 | fadL FadR site 1 (dsDNA) DNA 1: GCAACATTCCAGCTGGTCCGACCTATACTCTCGCC DNA 2: GGCGAGAGTATAGGTCGGACCAGCTGGAATGTTGC |  | binding result [2]: binds
5 | fadH CRP site 2 (probe 2) (dsDNA) DNA 1: CACCGGGCGTATTCTTTTTGAATCCCATCACAAACCCCGCACTCC DNA 2: GGAGTGCGGGGTTTGTGATGGGATTCAAAAAGAATACGCCCGGTG | binds | 
6 | fadL FadR site 2 (dsDNA) DNA 1: CTCTCGCCACTGGTCTGATTTCTAAGATGTACCTC DNA 2: GAGGTACATCTTAGAAATCAGACCAGTGGCGAGAG |  | binding result [2]: binds
7 | fadD FadR site 1 (dsDNA) DNA 1: GTAATTATCAAGCTGGTATGATGAGTTAATATTATG DNA 2: CATAATATTAACTCATCATACCAGCTTGATAATTAC |  | binding result [3]: binds
